Laboratory results published in IntAct's records for PubMed 29039417.

B1: Protein PTHB1 (Homo sapiens), Q3SYG4 (parent)
chain: MSLFKARDWWSTILGDKEEFDQGCLCLANVDNSGNGQDKIIVGSFMGYLRIFSPHPAKTGDGAQAEDLLLEVDLRDPVLQVEVGKFVSGTEMLHLAVLHSRKLCVYSVSGTLGNVEHGNQCQMKLMYEHNLQRTACNMTYGSFGGVKGRDLICIQSMDGMLMVFEQESYAFGRFLPGFLLPGPLAYSSRTDSFLTVSSCQQVESYKYQVLAFATDADKRQETEQQKLGSGKRLVVDWTLNIGEQALDICIVSFNQSASSVFVLGERNFFCLKDNGQIRFMKKLDWSPSCFLPYCSVSEGTINTLIGNHNNMLHIYQDVTLKWATQLPHIPVAVRVGCLHDLKGVIVTLSDDGHLQCSYLGTDPSLFQAPNVQSRELNYDELDVEMKELQKIIKDVNKSQGVWPMTEREDDLNVSVVVSPNFDSVSQATDVEVGTDLVPSVTVKVTLQNRVILQKAKLSVYVQPPLELTCDQFTFEFMTPDLTRTVSFSVYLKRSYTPSELEGNAVVSYSRPTDRNPDGIPRVIQCKFRLPLKLICLPGQPSKTASHKITIDTNKSPVSLLSLFPGFASQSDDDQVNVMGFHFLGGARITVLASKTSQRYRIQSEQFEDLWLITNELILRLQEYFEKQGVKDFACSFSGSIPLQEYFELIDHHFELRINGEKLEELLSERAVQFRAIQRRLLARFKDKTPAPLQHLDTLLDGTYKQVIALADAVEENQGNLFQSFTRLKSATHLVILLIALWQKLSADQVAILEAAFLPLQEDTQELGWEETVDAAISHLLKTCLSKSSKEQALNLNSQLNIPKDTSQLKKHITLLCDRLSKGGRLCLSTDAAAPQTMVMPGGCTTIPESDLEERSVEQDSTELFTNHRHLTAETPRPEVSPLQGVSE
partner: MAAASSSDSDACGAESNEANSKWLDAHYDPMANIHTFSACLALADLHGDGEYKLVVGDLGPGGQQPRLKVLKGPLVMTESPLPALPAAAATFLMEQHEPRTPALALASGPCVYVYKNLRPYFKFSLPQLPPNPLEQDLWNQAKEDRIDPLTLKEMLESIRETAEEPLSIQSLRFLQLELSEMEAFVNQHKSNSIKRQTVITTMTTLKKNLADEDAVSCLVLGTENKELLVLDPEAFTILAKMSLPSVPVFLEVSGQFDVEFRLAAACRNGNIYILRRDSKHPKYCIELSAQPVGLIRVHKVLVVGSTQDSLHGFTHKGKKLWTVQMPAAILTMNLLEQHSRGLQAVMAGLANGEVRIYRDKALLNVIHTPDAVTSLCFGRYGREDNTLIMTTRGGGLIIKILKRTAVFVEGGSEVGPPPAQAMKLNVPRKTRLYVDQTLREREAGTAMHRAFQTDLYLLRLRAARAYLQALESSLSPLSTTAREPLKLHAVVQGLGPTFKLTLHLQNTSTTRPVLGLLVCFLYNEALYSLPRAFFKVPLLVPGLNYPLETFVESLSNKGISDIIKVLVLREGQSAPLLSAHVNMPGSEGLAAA

Variants of: B1
Details: with bbs1_human BBS1, Q8NFJ9

Variant | effect of a mutation on the interaction
V489E | with no effect
V489K | with no effect
V489A | with no effect
L465A | with no effect
L465K | with no effect
L465E | with no effect
Y495A | with no effect
Y495E | with no effect
Y495K | with no effect
F487E | with no effect
F487K | with no effect
F487A | with no effect
Q471A | with no effect
Q471K | with no effect
Q471E | with no effect
D470A | with no effect
D470K | with no effect
D470E | with no effect
R483K | with no effect
R483A | with no effect
R483E | with no effect
V485K | with no effect
V485A | with no effect
V485E | with no effect

Variant | effect of a mutation on the interaction
E499A | with no effect
E499K | with no effect
S488K | with no effect
S488A | with no effect
S488E | with no effect
Q447E | with no effect
Q447K | with no effect
Q447A | with no effect
E466K | with no effect
E466A | with no effect
A455K | with no effect
A455E | with no effect
D480K | with no effect
D480A | with no effect
D480E | with no effect
V440E | with no effect
V440A | with no effect
V440K | with no effect
F472K | with no effect
F472E | with no effect
F472A | with no effect
T478K | with no effect
T478A | with no effect
T478E | with no effect

Variant | effect of a mutation on the interaction
Q462A | with no effect
Q462T | disrupting interaction strength
Q462K | with no effect
Q462E | with no effect
Q453A | with no effect
Q453E | with no effect
Q453K | with no effect
L446A | with no effect
L446E | with no effect
L446K | with no effect
M477K | with no effect
M477A | with no effect
M477E | with no effect
K454A | with no effect
K454E | with no effect
S494K | with no effect
S494E | with no effect
S494A | with no effect
V461K | with no effect
V461A | with no effect
V461E | with no effect
T468K | with no effect
T468E | with no effect
T468A | with no effect

Variant | effect of a mutation on the interaction
V442A | with no effect
V442K | with no effect
V442E | with no effect
P497K | with no effect
P497E | with no effect
P497A | with no effect
F476A | with no effect
F476K | with no effect
F476E | with no effect
T441A | with no effect
T441K | with no effect
T441E | with no effect
L500E | with no effect
L500A | with no effect
L500K | with no effect
R493A | with no effect
R493K | with no effect
R493E | with no effect
T482P | disrupting interaction strength
T482K | with no effect
T482E | with no effect
T482A | with no effect
V459E | disrupting interaction strength
V459A | with no effect

Variant | effect of a mutation on the interaction
V459K | with no effect
L467A | with no effect
L467E | with no effect
L467K | with no effect
T484E | with no effect
T484K | with no effect
T484A | with no effect
L481E | with no effect
L481K | with no effect
L481A | with no effect
V444A | with no effect
V444K | with no effect
V444E | with no effect
L452K | with no effect
L452A | with no effect
L452E | with no effect
S439A | with no effect
S439K | with no effect
S439E | with no effect
K443E | with no effect
K443A | with no effect
S486K | with no effect
S486A | with no effect
S486E | with no effect

Variant | effect of a mutation on the interaction
T445A | with no effect
T445K | with no effect
T445E | with no effect
Y460E | with no effect
Y460K | with no effect
Y460A | with no effect
N448K | with no effect
N448E | with no effect
N448A | with no effect
S458A | with no effect
S458E | with no effect
S458K | with no effect
P463K | with no effect
P463E | with no effect
P463A | with no effect
S498E | with no effect
S498K | with no effect
S498A | with no effect
P479K | with no effect
P479A | with no effect
P479E | with no effect
K456A | with no effect
K456E | with no effect
E475K | with no effect

Variant | effect of a mutation on the interaction
E475A | with no effect
L457E | with no effect
L457A | with no effect
L457K | with no effect
T496A | with no effect
T496K | with no effect
T496E | with no effect
E501A | with no effect
P438E | with no effect
P438K | with no effect
P438A | with no effect
T473A | with no effect
T473K | with no effect
T473E | with no effect
P464A | with no effect
P464E | with no effect
P464K | with no effect
V450K | with no effect
V450A | with no effect
V450E | with no effect
R449K | with no effect
R449A | with no effect
R449E | with no effect
I451A | with no effect

Variant | effect of a mutation on the interaction
I451E | with no effect
I451K | with no effect
C469E | with no effect
C469Y | disrupting interaction strength
C469K | with no effect
C469A | with no effect
L491E | with no effect
L491K | with no effect
L491A | with no effect
F474E | with no effect
F474A | with no effect
F474K | with no effect
Y490A | with no effect
Y490K | with no effect
Y490E | with no effect
V437K | with no effect
K492A | with no effect
K492E | with no effect
